The target of this experiment is viral gp41 (HIV-1 transmembrane envelope protein) of HIV-1IIIB (HIV-1IIIB) (UniProt P04578). In words: cell-based or functional assay.
For the substance “M41-PΔ178 (M41-P from which the DP-178 region has been deleted; gp41 residues 540-642 with Ile578Pro) (from UniProt P03377 540-642)”, the Cell fusion (IC90) was above 50000 nM and the HIV infectivity (IC90) was above 8000 nM.
The like results for “DP107 (synthetic peptide, residues 558 to 595 of HIV-1LAI gp41)” were, in that order, 1000 nM and 1000 nM.
Consider “M41-P (M41 with an Ile to Pro mutation at position 578) (from UniProt P0AEX9 27-392; P03377 540-686)”, for which the Cell fusion (IC90) came out at 83 nM and the HIV infectivity (IC90) turned out to be 66 nM.
As to “DP178 (synthetic peptide, amino acids 638 to 673 of HIV-1LAI gp41)”, the Cell fusion (IC90) stood at 1 nM and the HIV infectivity (IC90) came out at 80 nM.
In the case of “M41 (maltose binding protein fusion of the gp41 ectodomain, residues 540-686) (from UniProt P0AEX9 27-392; P03377 540-686)”, the Cell fusion (IC90) was above 50000 nM and the HIV infectivity (IC90) was above 16000 nM.

These data come from patent publication US6518013.
